Source: the supplement of paper PMC11316812
± gives the standard deviation of the averaged measurements.

Experiments:
MCF7 = experiment: percentage of EdU-negative (G0-arrested) nuclei per well, 72 h; higher = more G0 arrest; conditions: reference: sequence is the full UniProt precursor, the tested protein was the secreted form or ectodomain
hTERT-HMEC = experiment: as above; conditions: reference: sequence is the full UniProt precursor, the tested protein was the secreted form or ectodomain
[1] = protein concentration 0.0225 µM
[2] = protein concentration 0.03125 µM
[3] = protein concentration 0.3125 µM
[4] = protein concentration 0.0175 µM
[5] = protein concentration 0.0171429 µM
[6] = protein concentration 0.171429 µM
[7] = protein concentration 0.02075 µM
[8] = protein concentration 0.2075 µM
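Also: secreted proteins added to cultured cells, EdU pulse at the end, nuclei found by Hoechst imaging, EdU status from nuclear versus surrounding ring intensity ratio, PBS as neutral control.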

MTPSRLPWLLSWVSATAWRAARSPLLCHSLRKTSSSQGGKSELVKQSLKKPKLPEGRFDAPEDSHLEKEPLEKFPDDVNPVTKEKGGPRGPEPTRYGDWERKGRCIDF [Q5VUM1]
percentage of EdU-negative (MCF7; [1]): 28 ± 2.2%
percentage of EdU-negative (MCF7; protein concentration 0.225 µM): 25.4 ± 1.5%
percentage of EdU-negative (hTERT-HMEC; [1]): 5.46 ± 0.82%
percentage of EdU-negative (hTERT-HMEC; protein concentration 0.225 µM): 5.79 ± 0.17%

MTRALCSALRQALLLLAAAAELSPGLKCVCLLCDSSNFTCQTEGACWASVMLTNGKEQVIKSCVSLPELNAQVFCHSSNNVTKTECCFTDFCNNITLHLPTASPNAPKLGPMELAIIITVPVCLLSIAAMLTVWACQGRQCSYRKKKRPNVEEPLSECNLVNAGKTLKDLIYDVTASGSGSGLPLLVQRTIARTIVLQEIVGKGRFGEVWHGRWCGEDVAVKIFSSRDERSWFREAEIYQTVMLRHENILGFIAADNKDNGTWTQLWLVSEYHEQGSLYDYLNRNIVTVAGMIKLALSIASGLAHLHMEIVGTQGKPAIAHRDIKSKNILVKKCETCAIADLGLAVKHDSILNTIDIPQNPKVGTKRYMAPEMLDDTMNVNIFESFKRADIYSVGLVYWEIARRCSVGGIVEEYQLPYYDMVPSDPSIEEMRKVVCDQKFRPSIPNQWQSCEALRVMGRIMRECWYANGAARLTALRIKKTISQLCVKEDCKA [Q8NER5]
percentage of EdU-negative (MCF7; [2]): 24.6 ± 0.8%
percentage of EdU-negative (MCF7; [3]): 26 ± 0.41%
percentage of EdU-negative (hTERT-HMEC; [2]): 4.41 ± 0.6%
percentage of EdU-negative (hTERT-HMEC; [3]): 4.47 ± 0.65%

MTRGGPGGRPGLPQPPPLLLLLLLLPLLLVTAEPPKPAGVYYATAYWMPAEKTVQVKNVMDKNGDAYGFYNNSVKTTGWGILEIRAGYGSQTLSNEIIMFVAGFLEGYLTAPHMNDHYTNLYPQLITKPSIMDKVQDFMEKQDKWTRKNIKEYKTDSFWRHTGYVMAQIDGLYVGAKKRAILEGTKPMTLFQIQFLNSVGDLLDLIPSLSPTKNGSLKVFKRWDMGHCSALIKVLPGFENILFAHSSWYTYAAMLRIYKHWDFNVIDKDTSSSRLSFSSYPGFLESLDDFYILSSGLILLQTTNSVFNKTLLKQVIPETLLSWQRVRVANMMADSGKRWADIFSKYNSGTYNNQYMVLDLKKVKLNHSLDKGTLYIVEQIPTYVEYSEQTDVLRKGYWPSYNVPFHEKIYNWSGYPLLVQKLGLDYSYDLAPRAKIFRRDQGKVTDTASMKYIMRYNNYKKDPYSRGDPCNTICCREDLNSPNPSPGGCYDTKVADIYLASQYTSYAISGPTVQGGLPVFRWDRFNKTLHQGMPEVYNFDFITMKPILKLDIK [Q6P4A8]
percentage of EdU-negative (MCF7; [4]): 25.6 ± 2.5%
percentage of EdU-negative (MCF7; protein concentration 0.175 µM): 27.7 ± 0.8%
percentage of EdU-negative (hTERT-HMEC; [4]): 4.42 ± 0.062%
percentage of EdU-negative (hTERT-HMEC; protein concentration 0.175 µM): 19.7 ± 1.7%

MTRTYENFQYLENKVKVQGFKNGPLPLQSLLQRLCSGPCHLLLSLGLGLLLLVIICVVGFQNSKFQRDLVTLRTDFSNFTSNTVAEIQALTSQGSSLEETIASLKAEVEGFKQERQAGVSELQEHTTQKAHLGHCPHCPSVCVPVHSEMLLRVQQLVQDLKKLTCQVATLNNNASTEGTCCPVNWVEHQDSCYWFSHSGMSWAEAEKYCQLKNAHLVVINSREEQNFVQKYLGSAYTWMGLSDPEGAWKWVDGTDYATGFQNWKPGQPDDWQGHGLGGGEDCAHFHPDGRWNDDVCQRPYHWVCEAGLGQTSQESH [Q8IUN9]
percentage of EdU-negative (MCF7; [1]): 24.9 ± 1%
percentage of EdU-negative (MCF7; protein concentration 0.225 µM): 26.5 ± 0.74%
percentage of EdU-negative (hTERT-HMEC; [1]): 5.25 ± 0.3%
percentage of EdU-negative (hTERT-HMEC; protein concentration 0.225 µM): 4.954 ± 0.011%

MTSHYVIAIFALMSSCLATAGPEPGALCELSPVSASHPVQALMESFTVLSGCASRGTTGLPQEVHVLNLRTAGQGPGQLQREVTLHLNPISSVHIHHKSVVFLLNSPHPLVWHLKTERLATGVSRLFLVSEGSVVQFSSANFSLTAETEERNFPHGNEHLLNWARKEYGAVTSFTELKIARNIYIKVGEDQVFPPKCNIGKNFLSLNYLAEYLQPKAAEGCVMSSQPQNEEVHIIELITPNSNPYSAFQVDITIDIRPSQEDLEVVKNLILILKCKKSVNWVIKSFDVKGSLKIIAPNSIGFGKESERSMTMTKSIRDDIPSTQGNLVKWALDNGYSPITSYTMAPVANRFHLRLENNAEEMGDEEVHTIPPELRILLDPGALPALQNPPIRGGEGQNGGLPFPFPDISRRVWNEEGEDGLPRPKDPVIPSIQLFPGLREPEEVQGSVDIALSVKCDNEKMIVAVEKDSFQASGYSGMDVTLLDPTCKAKMNGTHFVLESPLNGCGTRPRWSALDGVVYYNSIVIQVPALGDSSGWPDGYEDLESGDNGFPGDMDEGDASLFTRPEIVVFNCSLQQVRNPSSFQEQPHGNITFNMELYNTDLFLVPSQGVFSVPENGHVYVEVSVTKAEQELGFAIQTCFISPYSNPDRMSHYTIIENICPKDESVKFYSPKRVHFPIPQADMDKKRFSFVFKPVFNTSLLFLQCELTLCTKMEKHPQKLPKCVPPDEACTSLDASIIWAMMQNKKTFTKPLAVIHHEAESKEKGPSMKEPNPISPPIFHGLDTLTVMGIAFAAFVIGALLTGALWYIYSHTGETAGRQQVPTSPPASENSSAAHSIGSTQSTPCSSSSTA
percentage of EdU-negative (MCF7; [5]): 24.6 ± 1.9%
percentage of EdU-negative (MCF7; [6]): 23.7 ± 2.4%
percentage of EdU-negative (hTERT-HMEC; [5]): 4.94 ± 0.63%
percentage of EdU-negative (hTERT-HMEC; [6]): 5.484 ± 0.021%

MTSKPHSDWIPYSVLDDEGRNLRQQKLDRQRALLEQKQKKKRQEPLMVQANADGRPRSRRARQSEEQAPLVESYLSSSGSTSYQVQEADSLASVQLGATRPTAPASAKRTKAAATAGGQGGAARKEKKGKHKGTSGPAALAEDKSEAQGPVQILTVGQSDHAQDAGETAAGGGERPSGQDLRATMQRKGISSSMSFDEDEEDEEENSSSSSQLNSNTRPSSATSRKSVREAASAPSPTAPEQPVDVEVQDLEEFALRPAPQGITIKCRITRDKKGMDRGMYPTYFLHLDREDGKKVFLLAGRKRKKSKTSNYLISVDPTDLSRGGDSYIGKLRSNLMGTKFTVYDNGVNPQKASSSTLESGTLRQELAAVCYETNVLGFKGPRKMSVIVPGMNMVHERVSIRPRNEHETLLARWQNKNTESIIELQNKTPVWNDDTQSYVLNFHGRVTQASVKNFQIIHGNDPDYIVMQFGRVAEDVFTMDYNYPLCALQAFAIALSSFDSKLACE
percentage of EdU-negative (MCF7; [7]): 24.8 ± 1.5%
percentage of EdU-negative (MCF7; [8]): 29.6 ± 0.96%
percentage of EdU-negative (hTERT-HMEC; [7]): 4.99 ± 0.76%
percentage of EdU-negative (hTERT-HMEC; [8]): 7.63 ± 0.81%
